Results: patent US10144929B2, “Polypeptide inhibitors of Smad3 polypeptide activities” (Mayo Foundation for Medical Education and Research, priority 2016, dated 2018)
No end group written: not given here.

Target: T1, pSmad3 (Mus musculus, UniProt Q8BUN5)
T1 construct: endogenous in cells; host or cells: AKR-2B cells
Test: Nuclear import of pSmad3 (nuclear fractions Western, immunofluorescence) in AKR-2B cells
Type: cell-based
Settings: 90 minutes transduction, TGFβ 5 ng/mL 1 hour
Protocol: FIGS. 1A-C. SH3 domain of sorting nexin 9 (SNX9) specifically binds pSmad3 and prevents nuclear import. (A) Cartoon depicting domains in full length (FL) SNX9 and constructs used for GST pull down assays. Lysates from AKR-2B cells untreated (−) or stimulated (+) for 45 minutes with 5 ng/mL TGFβ were incubated with GST beads or the indicated fusion polypeptides immobilized on GST beads. Bound polypeptides were eluted and assessed by Western analysis for pSmad3 or pSmad2. Cell lysate reflects signal obtained from 10 μg total protein. (B) AKR-2B cells were transduced for 90 minutes with the indicated concentrations of the TAT-SNX9(SH3) fusion polypeptides. […] Quantitation of nuclear pSmads was performed with Image J software and represents the mean+/−sd of two experiments (Right). […] Quantitation of nuclear Smad3 from 30 cells in each of two experiments (Right).
FIGS. 3A-E. Inhibition of Smad3 signaling by a defined region of the SH3 domain in SNX9. […] (B) Nuclear fractions were prepared and assessed as in FIG. 1B following transduction with the indicated TAT-SNX9(SH3) fusion polypeptide (Left). Quantitation (mean+/−sd) of nuclear pSmad2 or pSmad3 from 2 experiments (Right). (C) Immunofluorescence of nuclear Smad3 was determined as in FIG. 1C from 30 cells in each of two experiments in the absence (−) or presence (+) of 5 ng/mL TGFβ and the indicated TAT-SNX9(SH3) fusion polypeptide (1.5 μM). […]

T1 sequence (Q8BUN5 whole entry): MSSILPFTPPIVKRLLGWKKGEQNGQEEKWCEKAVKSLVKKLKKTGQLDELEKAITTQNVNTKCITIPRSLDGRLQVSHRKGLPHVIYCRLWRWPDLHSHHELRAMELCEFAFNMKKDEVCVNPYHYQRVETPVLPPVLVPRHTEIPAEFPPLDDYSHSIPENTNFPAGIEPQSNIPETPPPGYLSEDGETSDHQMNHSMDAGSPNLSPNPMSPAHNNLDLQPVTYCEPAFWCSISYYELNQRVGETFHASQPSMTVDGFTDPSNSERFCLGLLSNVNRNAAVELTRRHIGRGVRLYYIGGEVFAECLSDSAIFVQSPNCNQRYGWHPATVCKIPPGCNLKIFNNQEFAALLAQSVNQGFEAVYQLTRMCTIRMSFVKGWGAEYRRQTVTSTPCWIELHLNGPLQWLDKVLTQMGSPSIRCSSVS

In the case of “TAT-containing polypeptide encoding amino acids 27-42 of SNX9: 16 mer TAT-SNX9(SH3) fusion polypeptide, SNX9 amino acids 27-42; probably SH3-2-2 (SEQ ID NO:34) (IITITNPDVGGGWLEG; also: TAT cell-penetrating peptide fusion; UniProt Q9Y5X1 27-42, looked up, fragment)”, the “nuclear import of pSmad3” value is reported as “activity similar to that obtained with SB431542”.
